# T1: Sea2 (S. cerevisiae (endogenous in yeast …, UniProt Q08281 1-1341))
# T1 construct: Sea2, S. cerevisiae, endogenous subunit of the SEAC (SEACAT, core); Native protein of the purified complex; two copies in the SEAC; source: endogenous, yeast cells expressing Sea4-TAP; in lysate and co-purified with Sea4-TAP (IgG Dynabeads, TEV elution)
# T1 sequence (looked up): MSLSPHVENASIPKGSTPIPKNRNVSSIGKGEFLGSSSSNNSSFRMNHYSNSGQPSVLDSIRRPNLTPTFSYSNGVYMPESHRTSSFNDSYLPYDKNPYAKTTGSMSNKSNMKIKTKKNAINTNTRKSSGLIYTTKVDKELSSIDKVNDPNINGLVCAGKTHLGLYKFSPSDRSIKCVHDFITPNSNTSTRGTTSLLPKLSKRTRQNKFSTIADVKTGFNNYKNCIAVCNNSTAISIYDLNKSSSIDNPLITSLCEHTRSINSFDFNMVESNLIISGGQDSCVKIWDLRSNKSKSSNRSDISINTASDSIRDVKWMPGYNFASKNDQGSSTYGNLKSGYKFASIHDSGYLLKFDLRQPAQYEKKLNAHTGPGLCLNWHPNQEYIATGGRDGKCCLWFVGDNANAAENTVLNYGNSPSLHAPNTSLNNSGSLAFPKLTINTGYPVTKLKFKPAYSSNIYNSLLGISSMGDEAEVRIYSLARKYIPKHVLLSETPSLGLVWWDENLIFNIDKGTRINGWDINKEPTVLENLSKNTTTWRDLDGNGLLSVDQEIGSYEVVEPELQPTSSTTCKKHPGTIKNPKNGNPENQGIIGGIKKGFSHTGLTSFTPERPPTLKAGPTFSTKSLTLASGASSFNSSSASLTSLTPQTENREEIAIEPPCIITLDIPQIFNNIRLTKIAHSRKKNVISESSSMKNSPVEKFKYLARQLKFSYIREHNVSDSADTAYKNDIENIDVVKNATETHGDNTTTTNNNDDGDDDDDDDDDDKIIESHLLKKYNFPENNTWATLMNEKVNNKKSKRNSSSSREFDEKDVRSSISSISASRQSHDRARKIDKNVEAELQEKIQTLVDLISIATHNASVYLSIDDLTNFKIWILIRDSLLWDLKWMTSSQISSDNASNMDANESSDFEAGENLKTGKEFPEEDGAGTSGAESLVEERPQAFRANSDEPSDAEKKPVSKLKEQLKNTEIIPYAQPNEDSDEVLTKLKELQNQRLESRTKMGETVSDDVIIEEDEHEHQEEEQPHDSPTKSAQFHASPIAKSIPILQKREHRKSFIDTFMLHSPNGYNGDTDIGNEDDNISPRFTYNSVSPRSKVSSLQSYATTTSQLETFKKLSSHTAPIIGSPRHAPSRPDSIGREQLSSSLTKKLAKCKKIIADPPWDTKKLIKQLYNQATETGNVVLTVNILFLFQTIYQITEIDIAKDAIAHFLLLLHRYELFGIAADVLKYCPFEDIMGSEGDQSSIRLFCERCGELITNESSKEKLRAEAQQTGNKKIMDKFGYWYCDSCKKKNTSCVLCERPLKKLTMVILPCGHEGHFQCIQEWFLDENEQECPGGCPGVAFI
# B1: Sea3 (natural protein, UniProt Q03897 1-1148, looked up)
# chain: MCSSINEGPYNSPTFGKSLSLKVDGGFNAVSINPSGRDIVLASRQGLYIIDLDDPFTPPRWLHHITPWQVADVQWSPHPAKPYWIVSTSNQKAIIWNLAKSSSNAIEFVLHGHSRAITDINFNPQHPDVLATCSVDTYVHAWDMRSPHRPFYSTSSWRSAASQVKWNYKDPNVLASSHGNDIFVWDLRKGSTPLCSLKGHVSSVNSIDFNRFKYSEIMSSSNDGTVKFWDYSKSTTESKRTVTTNFPIWRGRYLPFGEGYCIMPMVGGNNAVYLINLCDDDDSEQNKKTKLQPIYAFKGHSDRVIDFLWRSRHTCDGDYDDREFQLVTWSKDCDLKLWPISDSIYGKVNFDRGKRLEEKLPDYDYCSYNKEPENRENVQKNEFRRLRENFVTTSGLKKNKTNHITWLSGIRMNSATSQEDLFNETKIQNLGEEVSAIGHKFPKVVFEKISVSTRELCLTLNGPWSEENPDDYIFLRISINFPLNYPNKGDPPKFTIEENSNLTMSKRQEILSNLATIGQKYTDSNLYCLEPCIRFVLGEKVSLEDIEEGQEPLLNFDIADHIDFEELSSLDSSYSDSQNPENLSSQSDIESYKEALVFPDTSNQGLDFGRNLALDTTPVPNGCGSCWTATGELFCFFANEKKPEKKQNAIIKLSQKEAGVEKHPFKIEPQVLYDKEVDSSVITAADELKARPKRYVDTLGLGGGTNGDSRTYFDDETSSDDSFDSVADDWDDILRNDIIVRTKIPILRGNFKAFSSVHSESGKTVESTKKNKNLVISKNFSSLLSDRKELALEYLFMDATPEGFARNNALVAEKFDLDEISHCWQILSDMLIDQSDYDPYTTIWNNHPMGIKWFIKEAIVYFERQQNLQMLAMLCCVILSARRKKIPARYYGQELENMEGTIVFNDNESQNTSFWKGSDAFSTRSRSSTVTPNFYGNHLRGKNIHGGDNSSIRSDDHHARLRTHNTLNGSSKFTEPAQKQGSRAISSSPFHSRMPDIKVELLHDDIIEAYEQEDLLHLEVSDIPKFQTYIYQYSKLLFRWGLPLERVKILKVSTDFRSSYSSQGIPPNNNKKSPYNGVLTHWIENNEFGEEKFLARNCNYCDLRVTRSSFICGNCQHVLHSSCARIWWEIGDECPSGCGCNCPEMFDA
# notes: Sea3, S. cerevisiae, endogenous subunit of the SEAC; Sea3^SIP (Sea3^Nter) lies in the wing, Sea3^SAP (Sea3^Cter) in the core; Native protein of the purified complex; two copies in the SEAC; source: endogenous, yeast cells expressing Sea4-TAP; in lysate and co-purified with Sea4-TAP (IgG Dynabeads, TEV elution)
# How the values were obtained:
# Assay in all cases: cryo-EM structure; endogenous SEAC purified from yeast via Sea4-TAP (IgG Dynabeads, TEV elution in 20 mM HEPES-NaOH pH 7.4, 300 mM NaCl, 2 mM DTT), on graphene-oxide-coated grids
# Settings in all cases: both partners purified
# [1] = target: B1
# [2] = target: T2, Sea1 (S. cerevisiae (endogenous in yeast …, UniProt P47170 1-1584))
# T2 construct: Sea1 (Iml1), S. cerevisiae, endogenous subunit of the SEAC (SEACIT, wing); Native protein of the purified complex; two copies in the SEAC; also called Iml1; Sea1/Iml1; source: endogenous, yeast cells expressing Sea4-TAP; in lysate and co-purified with Sea4-TAP (IgG Dynabeads, TEV elution)
# T2 sequence (P47170 whole entry): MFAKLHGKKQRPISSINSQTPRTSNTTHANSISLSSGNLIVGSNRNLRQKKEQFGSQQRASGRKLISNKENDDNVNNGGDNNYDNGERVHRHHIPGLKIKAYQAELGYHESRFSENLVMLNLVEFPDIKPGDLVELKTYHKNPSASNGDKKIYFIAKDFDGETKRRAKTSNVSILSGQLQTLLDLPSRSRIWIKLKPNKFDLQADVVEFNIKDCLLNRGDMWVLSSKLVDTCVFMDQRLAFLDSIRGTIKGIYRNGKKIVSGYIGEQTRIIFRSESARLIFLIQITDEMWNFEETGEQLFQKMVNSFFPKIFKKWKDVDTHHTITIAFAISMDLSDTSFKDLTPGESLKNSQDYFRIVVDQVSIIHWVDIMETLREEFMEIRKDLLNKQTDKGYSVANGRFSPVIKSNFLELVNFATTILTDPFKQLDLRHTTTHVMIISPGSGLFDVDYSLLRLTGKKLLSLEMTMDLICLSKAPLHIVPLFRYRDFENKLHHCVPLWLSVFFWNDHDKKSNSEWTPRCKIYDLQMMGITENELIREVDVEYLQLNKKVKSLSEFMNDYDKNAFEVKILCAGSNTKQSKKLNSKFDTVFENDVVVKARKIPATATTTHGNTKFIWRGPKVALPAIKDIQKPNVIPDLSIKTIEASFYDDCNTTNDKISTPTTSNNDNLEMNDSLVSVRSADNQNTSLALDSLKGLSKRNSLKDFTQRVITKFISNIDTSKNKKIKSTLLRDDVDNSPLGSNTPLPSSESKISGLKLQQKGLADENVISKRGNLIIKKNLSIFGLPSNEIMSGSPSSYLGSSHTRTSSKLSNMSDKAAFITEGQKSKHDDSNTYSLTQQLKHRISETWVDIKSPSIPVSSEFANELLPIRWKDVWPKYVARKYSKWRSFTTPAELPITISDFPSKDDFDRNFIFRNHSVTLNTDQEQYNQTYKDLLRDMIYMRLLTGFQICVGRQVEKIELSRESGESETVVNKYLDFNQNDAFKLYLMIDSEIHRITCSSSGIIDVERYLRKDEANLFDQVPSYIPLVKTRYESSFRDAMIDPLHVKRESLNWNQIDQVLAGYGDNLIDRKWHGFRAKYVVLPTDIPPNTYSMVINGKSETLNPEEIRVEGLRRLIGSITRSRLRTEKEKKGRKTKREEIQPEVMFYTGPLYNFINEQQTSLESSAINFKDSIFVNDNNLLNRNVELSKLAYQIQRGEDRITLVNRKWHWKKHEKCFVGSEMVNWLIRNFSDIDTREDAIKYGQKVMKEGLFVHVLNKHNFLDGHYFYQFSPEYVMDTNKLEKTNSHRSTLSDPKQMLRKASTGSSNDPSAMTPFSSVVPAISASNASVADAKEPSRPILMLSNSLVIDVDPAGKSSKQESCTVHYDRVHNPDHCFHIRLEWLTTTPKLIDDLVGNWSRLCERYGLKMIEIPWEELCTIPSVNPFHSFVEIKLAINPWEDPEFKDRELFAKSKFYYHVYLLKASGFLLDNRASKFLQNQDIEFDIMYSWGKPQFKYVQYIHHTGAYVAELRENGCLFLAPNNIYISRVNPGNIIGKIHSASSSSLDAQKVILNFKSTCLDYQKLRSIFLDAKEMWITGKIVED
# [3] = target: T1, Sea2
Binder,binding result [1],binding result [2],binding result [3]
"Sec13 (natural protein, UniProt Q04491 1-297, looked up, Sec13, S. cerevisiae, endogenous subunit of the SEAC (SEACAT, core); Native protein of the purified complex; two copies in the SEAC; source: endogenous, yeast cells expressing Sea4-TAP; in lysate and co-purified with Sea4-TAP (IgG Dynabeads, TEV elution)) MVVIANAHNELIHDAVLDYYGKRLATCSSDKTIKIFEVEGETHKLIDTLTGHEGPVWRVDWAHPKFGTILASCSYDGKVLIWKEENGRWSQIAVHAVHSASVNSVQWAPHEYGPLLLVASSDGKVSVVEFKENGTTSPIIIDAHAIGVNSASWAPATIEEDGEHNGTKESRKFVTGGADNLVKIWKYNSDAQTYVLESTLEGHSDWVRDVAWSPTVLLRSYLASVSQDRTCIIWTQDNEQGPWKKTLLKEEKFPDVLWRASWSLSGNVLALSGGDNKVTLWKENLEGKWEPAGEVHQ",binds,–,–
"Npr2 (natural protein, UniProt P39923 1-615, looked up, Npr2, S. cerevisiae, endogenous subunit of the SEAC (SEACIT, wing); Native protein of the purified complex; two copies in the SEAC; source: endogenous, yeast cells expressing Sea4-TAP or Sea1-TAP; in lysate and co-purified with the tagged subunit (IgG Dynabeads, TEV elution)) MLSYFQGFVPIHTIFYSVFHPTEGSKIKYEFPPNNLKNHGINFNTFKNYIIPKPILCHKLITFKYGTYRIVCYPVTINSPIYARNFFSFNFVFVFPYDCETSPYEPAITRLGKMFKVLEEQNQLLSKSERDPVFFDLKVLENSTTTPSTAGPSSTPNPSSNTTPTHPTSEKDTKDMRSSRYSDLIKDLGLPQSAFSIQDLLMRIFQDLNNYSECLIPIDEGNAVDIKIFPLLRPPTTCVSLEDVPLSSVNLKKIIDVNWDPTMMSIVPYIDGLNSIAKISKLSNSDPGLVIECIRHLIYYKCVTLSDIFQFSNIYAPSSLIRNFLTDPLMASDCQSYVTFPEVSKISNLPLNKSLGSGDQDSPSFSVRRKSKSSSIPSNPDSRTTSFSSTSRVSQNSSLNSSFSSIYKDWRQSQTSCSSSNIHVINNRNRFLPTRSCLFDLYRSLSQGQTLKTWYESKYMILKENNIDIRRFITFGLEKRIIYRCYSFPVMINAGSREPKEMTPIITKDLVNNDKLLEKRNHNHLLSATGSRNTAQSGNLKPERPSKVSFEMQRVSSLATGKSTMPKLSDEEEGILEESIRNAETFDKICVLLSKPKLEVESYLNELGEFKVINS",binds,binds,–
B1,–,binds,binds
